Results reported in PMC5389708 (Nucleic Acids Research, 2017).
Positions count from the first letter of the chain named. Numbers in names are those of the source.

B1: gorilla APOBEC3C (enzyme)
chain: MNPQIRNPMKAMYPGTFYFQFKNLWEANDRNETWLCFTVEGIKRRSVVSWKTGVFRNQVDSETHCHAERCFLSWFCDDILSPNTNYQVTWYTSWSPCPECAGEVAEFLARHSNVKLTIFTARLYYFQYPCYQVGLRSLSQEGVAVEIMDYEDFKYCWENFVYNDNEPFKPWKGLKTNFRLLKRRLRESLQ
B2: human APOBEC3C S188I/N115K (enzyme)
chain: B1 chain with N85K, E99D, V133E, S188I
B3: gorilla APOBEC3C K115N (enzyme)
chain: B1 chain with K115N
B4: human APOBEC3C N115K (enzyme)
chain: B1 chain with N85K, E99D, V133E
B5: human APOBEC3C S188I (enzyme)
chain: B1 chain with N85K, E99D, K115N, V133E, S188I
B6: gorilla APOBEC3C S188I (enzyme)
chain: B1 chain with S188I

Assays:
[1] = biological target: chimpanzee APOBEC3C (chimpanzee); assay: SEC
[2] = biological target: chimpanzee APOBEC3C (chimpanzee); assay: cross-linking
[3] = biological target: chimpanzee APOBEC3C S188I (chimpanzee); assay: cross-linking
[4] = biological target: the molecule itself; assay: cross-linking
[5] = biological target: the molecule itself; assay: SEC

| Molecule | stoichiometry N [4] | also measured |
| --- | --- | --- |
| chimpanzee APOBEC3C (enzyme) | – | stoichiometry N [1]: 2; stoichiometry N [2]: 2 |
| chimpanzee APOBEC3C S188I (enzyme) | – | stoichiometry N [3]: 2 |
| B1 | 2 | – |
| B2 | 2 | – |
| B3 | 2 | – |
| B4 | – | stoichiometry N [5]: 2 |
| B5 | 2 | – |
| B6 | 2 | – |
